According to patent US20030129724A1 (Harvard, published 2003):
One block for each molecule: values may come before it.

B3: Recombinant FLAG-epitope tagged HDAC6 (enzyme, not shown: small tags and cut ends)
chain: MTSTGQDSTTTRQRRSRQNPQSPPQDSSVTSKRNIKKGAVPRSIPNLAEVKKKGKMKKLGQAMEEDLIVGLQGMDLNLEAEALAGTGLVLDEQLNEFHCLWDDSFPEGPERLHAIKEQLIQEGLLDRCVSFQARFAEKEELMLVHSLEYIDLMETTQYMNEGELRVLADTYDSVYLHPNSYSCACLASGSVLRLVDAVLGAEIRNGMAIIRPPGHHAQHSLMDGYCMFNHVAVAARYAQQKHRIRRVLIVDWDVHHGQGTQFTFDQDPSVLYFSIHRYEQGRFWPHLKASNWSTTGFGQGQGYTINVPWNQVGMRDADYIAAFLHVLLPVALEFQPQLVLVAAGFDALQGDPKGEMAATPAGFAQLTHLLMGLAGGKLILSLEGGYNLRALAEGVSASLHTLLGDPCPMLESPGAPCRSAQASVSCALEALEPFWEVLVRSTETVERDNMEEDNVEESEEEGPWEPPVLPILTWPVLQSRTGLVYDQNMMNHCNLWDSHHPEVPQRILRIMCRLEELGLAGRCLTLTPRPATEAELLTCHSAEYVGHLRATEKMKTRELHRESSNFDSIYICPSTFACAQLATGAACRLVEAVLSGEVLNGAAVVRPPGHHAEQDAACGFCFFNSVAVAARHAQTISGHALRILIVDWDVHHGNGTQHMFEDDPSVLYVSLHRYDHGTFFPMGDEGASSQIGRAAGTGFTVNVAWNGPRMGDADYLAAWHRLVLPIAYEFNPELVLVSAGFDAARGDPLGGCQVSPEGYAHLTHLLMGLASGRIILILEGGYNLTSISESMAACTRSLLGDPPPLLTLPRPPLSGALASITETIQVHRRYWRSLRVMKVEDREGPSSSKLVTKKAPQPAKPRLAERMTTREKKVLEAGMGKVTSASFGEESTPGQTNSETAVVALTQDQPSEAATGGATLAQTISEAAIGGAMLGQTTSEEAVGGATPDQTTSEETVGGAILDQTTSEDAVGGATLGQTTSEEAVGGATLAQTISEAAMEGATLDQTTSEEAPGGTELIQTPLASSTDHQTPPTSPVQGTTPQISPSTLIGSLRTLELGSESQGASESQAPGEENLLGEAAGGQDMADSMLMQGSRGLTDQAIFYAVTPLPWCPHLVAVCPIPAAGLDVTQPCGDCGTIQENWVCLSCYQVYCGRYINGHMLQHHGNSGHPLVLSYIDLSAWCYYCQAYVHHQALLDVKNIAHQNKFGEDMPHPH
notes: Full length ORF with C-terminal FLAG tag in pBJ5, expressed in TAg Jurkat cells; also called HDAC6-FLAG; HD6

Key:
HDAC4-EGFP (human) = HDAC4-EGFP (human) (UniProt P56524); assay: cell-based or functional assay
[1] = molecular target: B3; assay: anti-FLAG co-immunoprecipitation from TAg Jurkat cells, Western blot
[2] = molecular target: T1, calyculin A-treated (hyperphosphorylated) HDAC4 (human, UniProt P56524 1-1084, hyperphosphorylated after calyculin A treatment of the cells; sites not determined); assay: immunopurified HDAC4-FLAG from calyculin A-treated cells incubated 1 hour with untreated TAg Jurkat lysate, Western blot
T1 construct: HDAC4-FLAG immunopurified from TAg Jurkat cells treated 1.5 hours with 20 nM calyculin A; also called HDAC4-FLAG from calyculin A-treated cells
Method: These samples were analyzed for 14-3-3 and HDAC3 binding by Western blot analysis.

CHD4 = molecular target: T2, CHD4 (UniProt Q14839 1-1912, limits assumed); assay: anti-FLAG co-immunoprecipitation from TAg Jurkat cells, Western blot
T2 construct: Endogenous protein detected by Western blot in immunoprecipitates; also called CHD chromodomain protein

mSin3A = molecular target: T3, mSin3A (UniProt Q96ST3 1-1273); assay: as above
T3 construct: Endogenous protein detected by Western blot in immunoprecipitates; also called co-repressor mSin3A
T3 sequence (looked up): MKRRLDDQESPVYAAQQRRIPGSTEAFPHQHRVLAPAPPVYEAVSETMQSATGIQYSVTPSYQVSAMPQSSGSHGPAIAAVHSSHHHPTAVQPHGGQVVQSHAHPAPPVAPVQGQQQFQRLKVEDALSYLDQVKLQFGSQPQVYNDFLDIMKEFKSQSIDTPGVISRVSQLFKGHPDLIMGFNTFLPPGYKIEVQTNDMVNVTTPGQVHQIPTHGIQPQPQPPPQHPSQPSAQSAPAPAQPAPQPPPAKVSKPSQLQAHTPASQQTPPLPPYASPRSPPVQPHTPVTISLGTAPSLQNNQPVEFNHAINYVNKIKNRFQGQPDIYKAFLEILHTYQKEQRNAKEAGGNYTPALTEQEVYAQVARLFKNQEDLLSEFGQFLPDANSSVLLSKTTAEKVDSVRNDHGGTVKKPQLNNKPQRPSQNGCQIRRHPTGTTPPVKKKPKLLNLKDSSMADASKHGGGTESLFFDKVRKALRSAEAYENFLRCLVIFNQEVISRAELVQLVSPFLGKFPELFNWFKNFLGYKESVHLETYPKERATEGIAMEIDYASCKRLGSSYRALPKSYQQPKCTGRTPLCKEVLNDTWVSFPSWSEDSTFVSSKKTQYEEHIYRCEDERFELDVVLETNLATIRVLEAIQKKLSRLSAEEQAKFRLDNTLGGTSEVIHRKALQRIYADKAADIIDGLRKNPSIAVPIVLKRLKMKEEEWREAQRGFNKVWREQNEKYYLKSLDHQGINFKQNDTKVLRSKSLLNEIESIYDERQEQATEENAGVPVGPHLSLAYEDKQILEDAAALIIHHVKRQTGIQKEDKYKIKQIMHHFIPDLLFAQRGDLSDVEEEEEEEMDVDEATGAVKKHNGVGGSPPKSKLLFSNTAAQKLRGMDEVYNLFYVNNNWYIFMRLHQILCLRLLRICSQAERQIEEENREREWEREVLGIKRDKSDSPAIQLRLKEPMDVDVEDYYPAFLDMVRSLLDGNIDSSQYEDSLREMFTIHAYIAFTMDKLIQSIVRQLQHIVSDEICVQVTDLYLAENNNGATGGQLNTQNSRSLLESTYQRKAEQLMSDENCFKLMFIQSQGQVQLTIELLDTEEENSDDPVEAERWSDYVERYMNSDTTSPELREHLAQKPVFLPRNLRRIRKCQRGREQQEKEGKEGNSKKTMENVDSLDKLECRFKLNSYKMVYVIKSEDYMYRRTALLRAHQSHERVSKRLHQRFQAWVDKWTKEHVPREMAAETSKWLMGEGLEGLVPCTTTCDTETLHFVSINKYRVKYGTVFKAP

T2 sequence (Q14839 whole entry): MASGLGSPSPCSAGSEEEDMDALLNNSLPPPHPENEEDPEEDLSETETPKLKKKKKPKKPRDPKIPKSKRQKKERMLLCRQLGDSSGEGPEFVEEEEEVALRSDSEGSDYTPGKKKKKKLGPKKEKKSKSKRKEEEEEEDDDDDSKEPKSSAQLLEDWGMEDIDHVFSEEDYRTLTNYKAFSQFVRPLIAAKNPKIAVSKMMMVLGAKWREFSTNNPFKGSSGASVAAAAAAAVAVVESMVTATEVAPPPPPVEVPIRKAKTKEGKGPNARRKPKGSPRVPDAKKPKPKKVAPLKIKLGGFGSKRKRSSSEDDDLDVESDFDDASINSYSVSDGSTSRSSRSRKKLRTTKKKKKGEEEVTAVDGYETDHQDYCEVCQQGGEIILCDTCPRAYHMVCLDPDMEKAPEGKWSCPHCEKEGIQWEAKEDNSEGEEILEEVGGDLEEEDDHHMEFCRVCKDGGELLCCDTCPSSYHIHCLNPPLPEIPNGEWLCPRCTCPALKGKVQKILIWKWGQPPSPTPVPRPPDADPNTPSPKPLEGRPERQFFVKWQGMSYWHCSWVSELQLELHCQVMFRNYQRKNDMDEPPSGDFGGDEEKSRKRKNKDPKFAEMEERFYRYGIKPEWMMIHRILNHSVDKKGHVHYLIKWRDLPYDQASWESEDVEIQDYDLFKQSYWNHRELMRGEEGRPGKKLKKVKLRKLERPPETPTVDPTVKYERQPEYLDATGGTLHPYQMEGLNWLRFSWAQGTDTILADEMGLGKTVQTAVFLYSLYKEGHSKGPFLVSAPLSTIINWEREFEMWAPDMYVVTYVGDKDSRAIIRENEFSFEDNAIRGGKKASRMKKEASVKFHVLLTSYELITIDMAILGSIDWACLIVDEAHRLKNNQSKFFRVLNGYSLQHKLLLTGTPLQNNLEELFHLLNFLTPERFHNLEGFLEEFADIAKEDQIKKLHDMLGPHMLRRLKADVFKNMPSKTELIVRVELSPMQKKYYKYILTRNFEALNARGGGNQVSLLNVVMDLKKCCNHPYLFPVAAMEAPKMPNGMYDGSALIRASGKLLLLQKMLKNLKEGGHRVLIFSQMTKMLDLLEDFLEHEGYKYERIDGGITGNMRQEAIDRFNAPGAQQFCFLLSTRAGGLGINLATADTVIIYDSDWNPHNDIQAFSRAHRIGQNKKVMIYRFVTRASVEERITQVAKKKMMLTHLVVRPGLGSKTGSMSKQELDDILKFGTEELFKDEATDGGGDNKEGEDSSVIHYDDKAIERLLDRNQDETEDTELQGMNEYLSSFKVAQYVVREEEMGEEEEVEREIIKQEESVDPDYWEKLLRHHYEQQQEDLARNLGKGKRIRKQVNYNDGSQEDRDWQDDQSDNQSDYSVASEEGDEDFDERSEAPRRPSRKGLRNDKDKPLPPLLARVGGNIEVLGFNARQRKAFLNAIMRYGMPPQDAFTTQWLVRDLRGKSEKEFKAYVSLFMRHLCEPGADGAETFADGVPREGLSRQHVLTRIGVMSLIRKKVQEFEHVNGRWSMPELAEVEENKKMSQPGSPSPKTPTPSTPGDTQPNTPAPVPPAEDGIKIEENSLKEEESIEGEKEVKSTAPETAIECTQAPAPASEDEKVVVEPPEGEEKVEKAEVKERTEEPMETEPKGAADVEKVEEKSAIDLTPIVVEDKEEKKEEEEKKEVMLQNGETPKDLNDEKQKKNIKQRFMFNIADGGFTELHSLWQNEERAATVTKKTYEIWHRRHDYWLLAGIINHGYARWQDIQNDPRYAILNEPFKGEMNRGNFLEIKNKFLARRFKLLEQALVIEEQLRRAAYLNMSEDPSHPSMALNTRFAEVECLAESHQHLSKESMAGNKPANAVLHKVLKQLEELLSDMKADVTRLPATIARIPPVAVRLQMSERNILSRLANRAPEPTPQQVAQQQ
Sequence of 14-3-3 ε, P62258 (P62258 whole entry, looked up): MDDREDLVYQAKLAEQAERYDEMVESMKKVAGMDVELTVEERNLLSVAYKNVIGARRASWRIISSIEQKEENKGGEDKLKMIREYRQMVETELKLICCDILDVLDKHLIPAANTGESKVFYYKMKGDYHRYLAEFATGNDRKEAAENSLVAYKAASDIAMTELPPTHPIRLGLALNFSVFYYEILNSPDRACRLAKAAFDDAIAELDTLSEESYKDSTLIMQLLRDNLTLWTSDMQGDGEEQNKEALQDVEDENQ
Sequence of 14-3-3 β, P31946 (P31946 whole entry, looked up): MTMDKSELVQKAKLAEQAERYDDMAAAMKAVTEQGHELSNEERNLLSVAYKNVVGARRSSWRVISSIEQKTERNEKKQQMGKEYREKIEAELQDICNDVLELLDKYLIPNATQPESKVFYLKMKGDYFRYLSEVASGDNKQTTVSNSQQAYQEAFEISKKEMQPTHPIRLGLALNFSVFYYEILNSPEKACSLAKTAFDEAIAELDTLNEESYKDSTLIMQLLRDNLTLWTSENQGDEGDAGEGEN

B1: HDAC4 S246/466/632A triple mutant (protein)
chain: MSSQSHPDGLSGRDQPVELLNPARVNHMPSTVDVATALPLQVAPSAVPMDLRLDHQFSLPVAEPALREQQLQQELLALKQKQQIQRQILIAEFQRQHEQLSRQHEAQLHEHIKQQQEMLAMKHQQELLEHQRKLERHRQEQELEKQHREQKLQQLKNKEKGKESAVASTEVKMKLQEFVLNKKKALAHRNLNHCISSDPRYWYGKTQHSSLDQSSPPQSGVSTSYNHPVLGMYDAKDDFPLRKTAAEPNLKLRSRLKQKVAERRSSPLLRRKDGPVVTALKKRPLDVTDSACSSAPGSGPSSPNNSSGSVSAENGIAPAVPSIPAETSLAHRLVAREGSAAPLPLYTSPSLPNITLGLPATGPSAGTAGQQDTERLTLPALQQRLSLFPGTHLTPYLSTSPLERDGGAAHSPLLQHMVLLEQPPAQAPLVTGLGALPLHAQSLVGADRVSPSIHKLRQHRPLGRTQAAPLPQNAQALQHLVIQQQHQQFLEKHKQQFQQQQLQMNKIIPKPSEPARQPESHPEETEEELREHQALLDEPYLDRLPGQKEAHAQAGVQVKQEPIESDEEEAEPPREVEPGQRQPSEQELLFRQQALLLEQQRIHQLRNYQASMEAAGIPVSFGGHRPLSRAQASPASATFPVSVQEPPTKPRFTTGLVYDTLMLKHQCTCGSSSSHPEHAGRIQSIWSRLQETGLRGKCECIRGRKATLEELQTVHSEAHTLLYGTNPLNRQKLDSKKLLGSLASVFVRLPCGGVGVDSDTIWNEVHSAGAARLAVGCVVELVFKVATGELKNGFAVVRPPGHHAEESTPMGFCYFNSVAVAAKLLQQRLSVSKILIVDWDVHHGNGTQQAFYSDPSVLYMSLHRYDDGNFFPGSGAPDEVGTGPGVGFNVNMAFTGGLDPPMGDAEYLAAFRTVVMPIASEFAPDVVLVSSGFDAVEGHPTPLGGYNLSARCFGYLTKQLMGLAGGRIVLALEGGHDLTAICDASEACVSALLGNELDPLPEKVLQQRPNANAVRSMEKVMEIHSKYWRCLQRTTSTAGRSLIEAQTCENEEAETVTAMASLSVGVKPAEKRPDEEPMEEEPPL
localization to the cytoplasm (14-3-3 ε, P62258): localization of the triple mutant to the cytoplasm is dramatically decreased compared to the wild-type and single mutants
localization to the cytoplasm (14-3-3 β, P31946): localization of the triple mutant to the cytoplasm is dramatically decreased compared to the wild-type and single mutants

Molecule: B3
binding result (CHD4): no binding
binding result (mSin3A): no binding

The next lines start with the values.

cytoplasmic localization of HDAC4 (percent of U2OS cells), HDAC4-EGFP with simultaneous overexpression of 14-3-3 (% of the cells) (HDAC4-EGFP (human)): 97
cytoplasmic localization of HDAC4 (percent of U2OS cells), control: HDAC4-EGFP alone without overexpressed 14-3-3 (% of the cells) (HDAC4-EGFP (human)): 67
Molecule: myc-tagged 14-3-3 β (from UniProt P31946 1-246)

binding result [1]: no binding
binding result [2]: binds
B2: HDAC3 (enzyme, human, UniProt O15379 1-428, looked up)
chain: MAKTVAYFYDPDVGNFHYGAGHPMKPHRLALTHSLVLHYGLYKKMIVFKPYQASQHDMCRFHSEDYIDFLQRVSPTNMQGFTKSLNAFNVGDDCPVFPGLFEFCSRYTGASLQGATQLNNKICDIAINWAGGLHHAKKFEASGFCYVNDIVIGILELLKYHPRVLYIDIDIHHGDGVQEAFYLTDRVMTVSFHKYGNYFFPGTGDMYEVGAESGRYYCLNVPLRDGIDDQSYKHLFQPVINQVVDFYQPTCIVLQCGADSLGCDRLGCFNLSIRGHGECVEYVKSFNIPLLVLGGGGYTVRNVARCWTYETSLLVEEAISEELPYSEYFEYFAPDFTLHPDVSTRIENQNSRQYLDQIRQTIFENLKMLNHAPSVQIHDVPADLLTYDRTDEADAEERGPEENYSRPEAPNEFYDGDHDNDKESDVEI
notes: Endogenous protein co-immunoprecipitated from cell lysate; also used here for HDAC3 of staurosporine-treated cells; also called HDAC3 from untreated cells
